The record followed here is patent US9176064B2, “Bisubstrate fluorescent probes for protein kinase CK2” (University of Tartu, priority 2012, dated 2015).

Where a SMILES comes first, the peptide text is derived from it. [ ]: non-standard residue; d: D form. The star is where a group is joined. X1 = O=C(CCCCCCCn1cnc2c(Br)c(Br)c(Br)c(Br)c21)*

Among the targets are PRK2 (Homo sapiens, UniProt Q16513); MAPKAP-K2 (Homo sapiens, UniProt P49137); EPH-A2 (Homo sapiens, UniProt P29317); TTBK2 (Homo sapiens, UniProt Q6IQ55); MKK2 (Homo sapiens, UniProt P36507); HIPK1 (Homo sapiens, UniProt Q86Z02); CAMKKb (Homo sapiens, UniProt Q96RR4); MINK1 (Homo sapiens, UniProt Q8N4C8); SIK3 (Homo sapiens, UniProt Q9Y2K2); PAK2 (Homo sapiens, UniProt Q13177); MKK1 (Homo sapiens, UniProt Q02750); MEKK1 (Homo sapiens, UniProt Q13233).

Assay in all cases: Kinase panel residual activity
Common to all, as to type: biochemical
Holding throughout (conditions): compound at 1 micromolar

The target in another data set is T1, ASK1 (Homo sapiens, UniProt Q99683).
T1 sequence (Q99683 1-1374): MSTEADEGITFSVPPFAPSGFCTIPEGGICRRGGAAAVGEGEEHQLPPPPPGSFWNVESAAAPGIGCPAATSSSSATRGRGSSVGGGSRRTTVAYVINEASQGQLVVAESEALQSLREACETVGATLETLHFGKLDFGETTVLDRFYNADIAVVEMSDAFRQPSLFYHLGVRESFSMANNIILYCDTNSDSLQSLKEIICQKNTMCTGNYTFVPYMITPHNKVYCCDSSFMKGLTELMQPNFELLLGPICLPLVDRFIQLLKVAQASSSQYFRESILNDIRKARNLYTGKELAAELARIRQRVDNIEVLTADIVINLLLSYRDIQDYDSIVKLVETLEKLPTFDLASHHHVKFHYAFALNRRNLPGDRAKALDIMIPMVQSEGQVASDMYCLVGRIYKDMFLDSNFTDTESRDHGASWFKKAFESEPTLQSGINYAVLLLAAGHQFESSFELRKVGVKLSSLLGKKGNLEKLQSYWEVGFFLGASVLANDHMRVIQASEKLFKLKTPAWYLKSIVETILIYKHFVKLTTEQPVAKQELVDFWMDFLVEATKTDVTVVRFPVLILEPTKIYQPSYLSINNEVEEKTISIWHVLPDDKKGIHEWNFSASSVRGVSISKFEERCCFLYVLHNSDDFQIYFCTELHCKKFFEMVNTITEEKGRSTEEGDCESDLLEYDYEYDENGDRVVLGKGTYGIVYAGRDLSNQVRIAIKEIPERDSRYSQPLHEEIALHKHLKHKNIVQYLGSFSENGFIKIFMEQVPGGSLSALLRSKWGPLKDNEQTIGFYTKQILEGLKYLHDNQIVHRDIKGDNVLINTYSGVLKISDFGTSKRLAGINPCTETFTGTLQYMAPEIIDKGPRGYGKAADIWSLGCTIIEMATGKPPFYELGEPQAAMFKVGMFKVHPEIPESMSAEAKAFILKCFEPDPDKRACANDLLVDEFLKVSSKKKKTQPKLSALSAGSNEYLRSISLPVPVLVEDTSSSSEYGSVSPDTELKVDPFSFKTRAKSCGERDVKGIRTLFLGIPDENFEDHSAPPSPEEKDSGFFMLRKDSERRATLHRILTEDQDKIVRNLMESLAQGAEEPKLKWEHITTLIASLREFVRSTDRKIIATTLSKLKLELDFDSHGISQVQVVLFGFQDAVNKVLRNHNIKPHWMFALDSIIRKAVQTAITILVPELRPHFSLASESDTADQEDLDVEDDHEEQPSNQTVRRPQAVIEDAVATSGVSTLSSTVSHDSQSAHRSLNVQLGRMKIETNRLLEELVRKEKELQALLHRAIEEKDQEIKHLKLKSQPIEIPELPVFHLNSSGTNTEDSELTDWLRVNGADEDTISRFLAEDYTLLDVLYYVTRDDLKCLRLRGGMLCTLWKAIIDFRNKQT

The next data set concerns the target T2, SGK1 (Homo sapiens, UniProt O00141).
T2 sequence (O00141 1-431): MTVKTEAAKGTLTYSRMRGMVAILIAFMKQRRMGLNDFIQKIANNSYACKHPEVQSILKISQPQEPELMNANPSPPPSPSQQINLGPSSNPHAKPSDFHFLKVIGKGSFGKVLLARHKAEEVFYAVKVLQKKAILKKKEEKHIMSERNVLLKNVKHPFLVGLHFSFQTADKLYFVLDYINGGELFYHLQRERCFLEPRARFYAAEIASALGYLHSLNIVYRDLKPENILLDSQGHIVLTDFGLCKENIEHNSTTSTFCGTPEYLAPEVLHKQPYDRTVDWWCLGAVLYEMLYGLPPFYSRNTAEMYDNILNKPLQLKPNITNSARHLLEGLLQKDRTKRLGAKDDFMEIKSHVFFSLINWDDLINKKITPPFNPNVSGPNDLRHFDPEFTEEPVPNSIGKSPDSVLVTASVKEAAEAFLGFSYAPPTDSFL

The target of a further data set is T3, p38g MAPK (Homo sapiens, UniProt P53778).
T3 sequence (P53778 1-367): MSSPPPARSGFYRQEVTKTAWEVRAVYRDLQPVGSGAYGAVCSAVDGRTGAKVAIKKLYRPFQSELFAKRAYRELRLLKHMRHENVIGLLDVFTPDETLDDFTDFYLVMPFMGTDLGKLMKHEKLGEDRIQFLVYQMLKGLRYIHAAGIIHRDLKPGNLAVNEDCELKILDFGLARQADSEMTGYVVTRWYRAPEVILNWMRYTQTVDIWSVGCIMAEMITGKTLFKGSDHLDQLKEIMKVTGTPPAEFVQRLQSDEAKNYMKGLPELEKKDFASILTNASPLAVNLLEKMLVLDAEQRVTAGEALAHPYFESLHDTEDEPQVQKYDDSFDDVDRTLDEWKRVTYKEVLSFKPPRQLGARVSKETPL

Chain of CAMKKb (Q96RR4 whole entry, species assumed): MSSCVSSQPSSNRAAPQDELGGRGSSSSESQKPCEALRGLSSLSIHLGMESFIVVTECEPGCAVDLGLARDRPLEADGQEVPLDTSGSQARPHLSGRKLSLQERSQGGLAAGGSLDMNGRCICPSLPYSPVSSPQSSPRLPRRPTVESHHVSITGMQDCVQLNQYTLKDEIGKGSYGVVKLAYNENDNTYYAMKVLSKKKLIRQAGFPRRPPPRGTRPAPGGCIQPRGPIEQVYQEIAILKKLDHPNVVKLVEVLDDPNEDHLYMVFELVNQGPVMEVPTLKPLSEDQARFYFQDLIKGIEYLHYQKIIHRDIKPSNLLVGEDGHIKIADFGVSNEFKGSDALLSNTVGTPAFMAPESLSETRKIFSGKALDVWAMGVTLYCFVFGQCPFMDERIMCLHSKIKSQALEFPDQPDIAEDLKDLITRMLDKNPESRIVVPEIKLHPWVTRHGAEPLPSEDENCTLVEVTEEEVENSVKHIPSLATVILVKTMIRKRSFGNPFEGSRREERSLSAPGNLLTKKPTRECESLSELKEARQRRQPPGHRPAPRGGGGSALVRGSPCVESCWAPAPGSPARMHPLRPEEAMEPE
Chain of MAPKAP-K2 (P49137 whole entry, species assumed): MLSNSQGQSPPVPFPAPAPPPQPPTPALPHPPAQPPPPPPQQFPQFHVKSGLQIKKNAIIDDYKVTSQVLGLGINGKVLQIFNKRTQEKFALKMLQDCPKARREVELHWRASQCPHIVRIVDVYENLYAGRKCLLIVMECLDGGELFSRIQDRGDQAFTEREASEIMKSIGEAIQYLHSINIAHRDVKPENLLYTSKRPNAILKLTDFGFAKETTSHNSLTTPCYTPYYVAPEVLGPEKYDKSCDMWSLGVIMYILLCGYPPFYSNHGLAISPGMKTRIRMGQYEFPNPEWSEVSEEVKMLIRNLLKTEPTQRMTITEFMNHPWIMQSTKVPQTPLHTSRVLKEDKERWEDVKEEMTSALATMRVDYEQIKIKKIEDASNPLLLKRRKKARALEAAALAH
Chain of PRK2 (Q16513 whole entry, species assumed): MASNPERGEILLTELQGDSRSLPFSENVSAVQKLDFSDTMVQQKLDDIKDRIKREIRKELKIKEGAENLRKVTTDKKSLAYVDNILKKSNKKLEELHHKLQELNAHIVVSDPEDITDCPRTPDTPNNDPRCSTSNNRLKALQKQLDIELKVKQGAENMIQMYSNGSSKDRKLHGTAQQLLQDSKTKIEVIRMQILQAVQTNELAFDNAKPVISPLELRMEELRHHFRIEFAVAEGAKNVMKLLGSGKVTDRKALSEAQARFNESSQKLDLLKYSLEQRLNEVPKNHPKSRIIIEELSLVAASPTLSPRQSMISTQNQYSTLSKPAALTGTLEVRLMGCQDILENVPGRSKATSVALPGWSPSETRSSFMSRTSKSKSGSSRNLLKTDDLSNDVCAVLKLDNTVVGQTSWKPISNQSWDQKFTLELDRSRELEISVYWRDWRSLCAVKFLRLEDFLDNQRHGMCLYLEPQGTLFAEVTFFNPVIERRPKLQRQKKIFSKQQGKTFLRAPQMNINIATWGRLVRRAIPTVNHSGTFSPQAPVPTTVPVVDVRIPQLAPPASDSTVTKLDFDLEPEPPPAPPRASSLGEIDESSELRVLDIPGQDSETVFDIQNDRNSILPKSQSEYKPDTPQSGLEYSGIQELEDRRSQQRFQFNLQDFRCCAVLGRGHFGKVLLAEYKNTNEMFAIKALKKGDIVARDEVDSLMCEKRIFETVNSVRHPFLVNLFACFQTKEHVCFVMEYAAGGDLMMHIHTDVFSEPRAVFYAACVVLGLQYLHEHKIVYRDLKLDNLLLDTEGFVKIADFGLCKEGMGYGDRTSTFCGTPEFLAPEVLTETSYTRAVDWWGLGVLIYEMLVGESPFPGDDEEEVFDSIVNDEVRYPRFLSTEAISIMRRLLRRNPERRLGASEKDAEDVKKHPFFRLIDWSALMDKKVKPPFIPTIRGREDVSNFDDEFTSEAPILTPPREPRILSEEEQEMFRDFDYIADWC
Chain of MKK1 (Q02750 whole entry, species assumed): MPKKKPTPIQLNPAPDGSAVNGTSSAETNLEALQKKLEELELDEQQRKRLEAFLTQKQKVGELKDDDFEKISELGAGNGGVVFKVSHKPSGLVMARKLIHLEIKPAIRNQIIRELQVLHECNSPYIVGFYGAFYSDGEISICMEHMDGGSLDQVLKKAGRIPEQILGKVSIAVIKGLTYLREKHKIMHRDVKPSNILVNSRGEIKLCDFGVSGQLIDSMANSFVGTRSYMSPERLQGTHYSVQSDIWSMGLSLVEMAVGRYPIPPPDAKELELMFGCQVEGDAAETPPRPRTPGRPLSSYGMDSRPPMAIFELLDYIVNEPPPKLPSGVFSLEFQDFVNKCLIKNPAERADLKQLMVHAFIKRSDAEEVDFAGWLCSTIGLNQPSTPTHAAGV
Chain of MINK1 (Q8N4C8 whole entry, species assumed): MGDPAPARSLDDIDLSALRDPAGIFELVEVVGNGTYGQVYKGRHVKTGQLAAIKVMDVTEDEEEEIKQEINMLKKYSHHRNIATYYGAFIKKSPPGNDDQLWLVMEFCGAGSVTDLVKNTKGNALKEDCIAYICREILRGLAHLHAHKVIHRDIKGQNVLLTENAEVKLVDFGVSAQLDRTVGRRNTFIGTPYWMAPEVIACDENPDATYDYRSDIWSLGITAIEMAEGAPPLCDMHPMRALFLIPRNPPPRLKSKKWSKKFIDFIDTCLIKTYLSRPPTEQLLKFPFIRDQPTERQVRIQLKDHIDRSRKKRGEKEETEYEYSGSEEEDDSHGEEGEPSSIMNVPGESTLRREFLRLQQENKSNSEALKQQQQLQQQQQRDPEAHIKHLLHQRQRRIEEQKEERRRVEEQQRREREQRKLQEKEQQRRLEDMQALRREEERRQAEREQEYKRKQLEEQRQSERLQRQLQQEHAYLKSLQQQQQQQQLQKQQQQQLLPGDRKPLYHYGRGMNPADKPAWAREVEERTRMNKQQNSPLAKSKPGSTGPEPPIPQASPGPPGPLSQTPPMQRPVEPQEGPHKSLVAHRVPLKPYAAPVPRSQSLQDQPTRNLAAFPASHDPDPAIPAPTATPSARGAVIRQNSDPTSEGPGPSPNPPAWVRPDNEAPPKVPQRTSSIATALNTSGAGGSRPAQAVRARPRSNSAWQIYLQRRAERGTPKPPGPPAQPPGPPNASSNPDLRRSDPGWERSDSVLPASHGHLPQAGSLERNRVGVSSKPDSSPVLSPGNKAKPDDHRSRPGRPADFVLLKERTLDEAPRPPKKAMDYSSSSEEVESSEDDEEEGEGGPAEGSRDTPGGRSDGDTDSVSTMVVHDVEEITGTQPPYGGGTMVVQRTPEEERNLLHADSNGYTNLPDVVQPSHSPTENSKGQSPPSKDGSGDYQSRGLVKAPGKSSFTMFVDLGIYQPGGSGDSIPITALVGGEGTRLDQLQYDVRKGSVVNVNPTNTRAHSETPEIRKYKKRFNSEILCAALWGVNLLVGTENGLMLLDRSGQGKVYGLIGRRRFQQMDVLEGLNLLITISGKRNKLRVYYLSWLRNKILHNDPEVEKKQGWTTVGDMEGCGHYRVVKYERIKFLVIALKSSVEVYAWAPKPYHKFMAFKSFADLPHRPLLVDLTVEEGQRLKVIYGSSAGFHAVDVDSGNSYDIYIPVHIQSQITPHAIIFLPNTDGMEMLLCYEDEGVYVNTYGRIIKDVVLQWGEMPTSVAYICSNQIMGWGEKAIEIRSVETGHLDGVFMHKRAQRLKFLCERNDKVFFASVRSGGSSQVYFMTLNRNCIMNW
Chain of HIPK1 (Q86Z02 whole entry, species assumed): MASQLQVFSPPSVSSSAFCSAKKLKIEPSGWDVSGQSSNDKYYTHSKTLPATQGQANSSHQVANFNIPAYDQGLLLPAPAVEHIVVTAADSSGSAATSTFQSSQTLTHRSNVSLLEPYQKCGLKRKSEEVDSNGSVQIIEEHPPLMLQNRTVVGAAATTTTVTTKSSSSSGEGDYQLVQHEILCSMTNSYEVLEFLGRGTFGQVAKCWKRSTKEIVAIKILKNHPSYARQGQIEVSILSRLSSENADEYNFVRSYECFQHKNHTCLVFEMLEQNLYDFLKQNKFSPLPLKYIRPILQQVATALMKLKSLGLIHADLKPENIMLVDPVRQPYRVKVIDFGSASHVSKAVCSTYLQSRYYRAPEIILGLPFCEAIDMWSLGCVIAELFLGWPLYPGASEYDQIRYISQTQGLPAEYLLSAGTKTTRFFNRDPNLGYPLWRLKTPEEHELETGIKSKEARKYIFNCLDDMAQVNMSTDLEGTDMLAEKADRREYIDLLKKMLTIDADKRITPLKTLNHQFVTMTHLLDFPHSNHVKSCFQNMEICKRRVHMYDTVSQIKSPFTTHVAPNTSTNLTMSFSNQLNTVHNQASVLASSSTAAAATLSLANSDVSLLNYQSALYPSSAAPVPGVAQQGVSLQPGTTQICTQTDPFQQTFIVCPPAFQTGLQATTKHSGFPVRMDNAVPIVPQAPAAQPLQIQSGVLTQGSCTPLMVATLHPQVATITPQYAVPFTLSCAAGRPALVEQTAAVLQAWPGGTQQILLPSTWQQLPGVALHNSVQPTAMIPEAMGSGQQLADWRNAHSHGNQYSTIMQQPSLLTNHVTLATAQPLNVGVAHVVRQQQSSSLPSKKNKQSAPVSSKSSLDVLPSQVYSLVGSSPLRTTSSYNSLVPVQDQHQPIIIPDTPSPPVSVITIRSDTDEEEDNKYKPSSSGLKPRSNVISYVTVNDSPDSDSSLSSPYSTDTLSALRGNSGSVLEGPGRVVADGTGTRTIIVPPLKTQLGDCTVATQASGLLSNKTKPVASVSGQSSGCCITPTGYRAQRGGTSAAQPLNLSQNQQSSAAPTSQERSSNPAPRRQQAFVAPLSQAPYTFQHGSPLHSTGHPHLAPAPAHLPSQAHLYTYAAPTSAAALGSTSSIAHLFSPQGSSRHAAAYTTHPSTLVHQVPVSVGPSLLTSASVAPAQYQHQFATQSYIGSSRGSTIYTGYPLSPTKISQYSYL

By remaining activity is commonly meant the signal under treatment as a percentage of the control signal. In the case of `NCCCC[C@H](NC(=O)[C@H](CC(=O)O)NC(=O)[C@H](CC(=O)O)NC(=O)[C@H](CC(=O)O)NC(=O)[C@H](CC(=O)O)NC(=O)[C@H](CC(=O)O)NC(=O)[C@@H](CC(=O)O)NC(=O)CCCCCCCn1cnc2c(Br)c(Br)c(Br)c(Br)c21)C(=O)O` [TBBI-OcA-(D-Asp)-(L-Asp)5-(L-Lys)-OH] (X1-[dD]DDDDDK-OH), the remaining activity at 1 µM with ASK1 worked out at 114%; with PRK2, 92%; with MAPKAP-K2 it was 89%; with EPH-A2, 80%; with TTBK2, 95%; in the data set with MKK2, 66%. Besides, the remaining activity at 1 µM with SGK1 came out at 127%; with p38g MAPK it was 97%; in the data set with HIPK1, 68%; with CAMKKb it was 91%; with MINK1, 139%; with SIK3 it was 74%. Also, the values for the remaining activity at 1 µM with PAK2, with MKK1 and with MEKK1 were 102%, 101% and 95%, respectively.
